{"source": "paper PMC8670446", "about": "(2021)", "binders": {"B1": {"name": "Sis1 (natural protein)", "chain": "MVKETKLYDLLGVSPSANEQELKKGYRKAALKYHPDKPTGDTEKFKEISEAFEILNDPQKREIYDQYGLEAARSGGPSFGPGGPGGAGGAGGFPGGAGGFSGGHAFSNEDAFNIFSQFFGGSSPFGGADDSGFSFSSYPSGGGAGMGGMPGGMGGMHGGMGGMPGGFRSASSSPTYPEEETVQVNLPVSLEDLFVGKKKSFKIGRKGPHGASEKTQIDIQLKPGWKAGTKITYKNQGDYNPQTGRRKTLQFVIQEKSHPNFKRDGDDLIYTLPLSFKESLLGFSKTIQTIDGRTLPLSRVQPVQPSQTSTYPGQGMPTPKNPSQRGNLIVKYKVDYPISLNDAQKRAIDENF"}}, "molecular_target": "Ssa1 (S. cerevisiae, UniProt P10591 1-642)", "sequence (P10591 whole entry)": "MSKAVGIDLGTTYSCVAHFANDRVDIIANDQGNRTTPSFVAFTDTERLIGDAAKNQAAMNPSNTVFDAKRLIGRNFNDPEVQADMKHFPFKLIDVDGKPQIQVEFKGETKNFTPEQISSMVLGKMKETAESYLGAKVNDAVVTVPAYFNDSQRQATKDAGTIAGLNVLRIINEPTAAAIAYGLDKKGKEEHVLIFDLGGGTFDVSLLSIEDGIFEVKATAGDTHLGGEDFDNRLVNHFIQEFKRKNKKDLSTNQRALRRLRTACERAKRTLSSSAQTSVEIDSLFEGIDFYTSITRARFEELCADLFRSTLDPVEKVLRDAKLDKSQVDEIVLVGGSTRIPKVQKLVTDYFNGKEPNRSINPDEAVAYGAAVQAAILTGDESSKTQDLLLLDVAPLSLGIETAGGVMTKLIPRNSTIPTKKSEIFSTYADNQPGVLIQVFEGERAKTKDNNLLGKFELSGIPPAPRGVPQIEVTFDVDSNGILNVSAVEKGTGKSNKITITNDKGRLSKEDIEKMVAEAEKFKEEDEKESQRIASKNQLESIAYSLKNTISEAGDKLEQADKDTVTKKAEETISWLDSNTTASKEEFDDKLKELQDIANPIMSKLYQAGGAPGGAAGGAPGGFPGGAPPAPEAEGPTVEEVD", "experiment": "BLI; apparent KD from equilibrium levels; His6-SUMO-Ssa1 immobilized"}
{"binder": "B1", "values": [{"measurement": "Kd", "value": 210, "unit": "nM"}]}
